The record followed here is US20110124842A1 (priority 2003, published 2011).

Where two headings read alike, the source gives them in different places. Where no end group is shown, it is not given here. [ ]: non-standard residue; d: D form. Aib = CC(C)(N)C(=O)O Bounds are passed on as bounds.

Data set [1] deals with recombinant gp41 (Example 2 ELISA) (HIV-1) (UniProt P04578). As to the kind of experiment: ELISA, Fab titrated on immobilized gp41.
Another data set concerns the target IgG 4E10. Nature of the data set: Competitive ELISA (IC50): peptide competes with biotinylated 4E10-epitope peptide for IgG 4E10. Type of data set: binding, human. The protocol: IC50, were determined by competitive ELISA using a constant concentration of biotinylated peptide and IgG with a variable concentration of gp41 peptides. Microwells were coated overnight at 4° C. with 50 μl PBS containing neutravidin (Pierce; 4 μg/ml). […] A mixture of a biotinylated 4E10-epitope peptide, […](biotin)-NH2 (SEQ ID NO: 88) (20 nM), IgG 4E10 (0.2 nM), and the competing peptide analog (3-fold dilution series starting at 10 μM) in 0.4% non-fat dry milk, 0.02% Tween and PBS was incubated in a separate 96-well plate at 37° C. for 2 hours. After washing the blocked plate, the mixture of 4E10, biotinylated peptide and competing peptide was added to the wells. After 20 minutes at room temperature, the Wells were washed five times, and a 1:500 dilution of goat anti-human IgG F(ab′)2 HRP conjugate (Pierce) was added. Following incubation at RT for 40 minutes, the wells were washed five times, and developed by adding 50 μl of TMB solution (Pierce) according to the manufacturer's instructions. After ˜20 minutes, wells containing TMB solution were stopped by adding 50 μl of H2SO4 (2M) and the O.D. at 450 nm was read on a microplate reader (Molecular Devices). The concentration of competitor peptide corresponding to a half-maximal signal (IC50) was determined by interpolation of the resulting binding curve. Each peptide competitor was tested in duplicate in at least two separate experiments.
IC50s were determined by competitive ELISA using a constant concentration of biotinylated peptide and IgG with a variable concentration of gp41 peptides. Microwells were coated overnight at 4° C. with 50 μl PBS containing neutravidin (Pierce; 4 μg/ml). […] Meanwhile, a mixture of a biotinylated 4E10-peptide epitope, […](biotin)-NH2 (SEQ ID NO: 88), (20 nM), IgG 4E10 (0.2 nM), and the competing peptide analogue (3-fold dilution series starting at 10 μM) in 0.4% NFDM, 0.02% Tween and PBS was incubated in a separate 96-well plate at 37° C. for 2 h. After washing the blocked plate, the mixture of 4E10, biotinylated peptide and competing peptide was added to the wells. After 20 min at room temperature, the wells were washed five times, and a 1:500 dilution of goat anti-human IgG F(ab′)2 HRP conjugate (Pierce) was added. Following incubation at RT for 40 min, the wells were washed five times, and developed by adding 50 μl of H2SO4 (2 M), and the O.D. at 450 nm was read on a microplate reader (Molecular Devices). The concentration of competitor peptide corresponding to a half-maximal signal (IC50) was determined by interpolation of the resulting binding curve. Each peptide competitor was tested in duplicate in at least two separate experiments.
(In general: An ELISA detects its analyte on a solid surface through an enzyme-linked reagent.)

The nature of data set [2]: Circular dichroism spectroscopy of free peptides in solution (helicity). It counts as physicochemical. The settings on record: FIG. 48. How it is done: To determine whether the imposed constraints increased the helicity of the peptides, each one was analyzed in solution using circular dichroism (CD) spectroscopy (FIG. 48). An Aviv spectropolarimeter Model 203-02 was used, with cells of 0.1 cm in length, a wavelength step of 0.5 nm and a bandwidth of 1.0 nm. One to three scans were reported. The exact peptide concentrations were determined by UV measurements at 280 nm on a Gison UV detector, model 116.
For orientation: CD spectra are sensitive to the conformation of chiral molecules.

Data set [3] deals with peptide 104-2, NWFc(CITO)WLWKKKK-NH2. Nature of the data set: surface plasmon resonance and ELISA. (In general: Surface plasmon resonance follows binding to a sensor surface in real time, without labels.)
Data set [4] deals with peptide 33-1, NWFDITN-Aib-LWRR-NH2. Nature of the data set: surface plasmon resonance and ELISA.
Data set [5] deals with peptide 94-1, …-NH2. Nature of the data set: surface plasmon resonance and ELISA.
The target of data set [6] is peptide 104-2, NWFc(CITO)WLWKKKK-NH2. Nature of the data set: surface plasmon resonance and ELISA (Table 7).
The target in data set [7] is peptide 94-1, …-NH2. As to the kind of experiment: surface plasmon resonance and ELISA (Table 7).
In data set [8] the target is recombinant gp41 (Example 2 ELISA) (HIV-1) (UniProt P04578). Nature of the data set: direct ELISA, antigen coated on wells, 4E10 at 5 µg/ml.
Data set [9] concerns the target recombinant IgG1(kappa) 4E10. Nature of the data set: competitive ELISA: gp41 against biotinylated …(biotin)-NH2 for IgG 4E10.
For data set [10], the target named is recombinant IgG1(kappa) 4E10. As to the kind of experiment: competitive ELISA; converted by the filing on the assumption of 25 kDa and a monomer.
Sequence of recombinant IgG1(kappa) 4E10 (heavy, as listed by the source): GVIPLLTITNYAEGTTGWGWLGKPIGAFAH
For data set [11], the target named is recombinant IgG1(kappa) 4E10. Nature of the data set: competitive ELISA, reference peptide of the alanine scan.
Data set [12] has as its target Fab 4E10. As to the kind of experiment: SPR (Biacore 2000), Fab 4E10 on CM5 chip, peptide in flow.
The target of data set [13] is recombinant IgG1(kappa) 4E10. Nature of the data set: competitive ELISA: peptide against biotinylated …(biotin)-NH2 (20 nM) for IgG 4E10 (0.2 nM).
The target in data set [14] is recombinant IgG1(kappa) 4E10. As to the kind of experiment: competitive ELISA.
Data set [15] addresses Fab 4E10. As to the kind of experiment: SPR (Biacore 2000), Fab 4E10 on CM5 chip, peptide in flow. This is another data set of the same source.
Data set [16] addresses recombinant IgG1(kappa) 4E10. Nature of the data set: competitive ELISA: peptide against biotinylated …(biotin)-NH2 for IgG 4E10.
In data set [17] the target is recombinant IgG1(kappa) 4E10. As to the kind of experiment: cell-based or functional assay.
Data set [18] concerns the target recombinant IgG1(kappa) 4E10. Nature of the data set: competitive ELISA for IgG 4E10.

Sequence of Fab 4E10 (heavy, as listed by the source): as above

In general, EC50 (read off the curve) refers to the concentration at which the effect is half-maximal. As for Fab 2F5, in data set [1], the half-maximal effective concentration (EC50 (read off the curve)) was found to be 0.03 mg/L.

Broadly, the IC50 is the concentration that gives 50% inhibition. In the case of NWFDITNWLWYIKBKBKK-NH2 [Peptide 119], the “IC50 (4E10 binding, competitive ELISA)” value at IgG 4E10 is reported as “the same IC50”. In the data set with IgG 4E10 (Table 6, constrained analogs, 4E10 binding, read-out: IC50), the IC50 was 0.01 µM. Also, the “helicity in solution by CD” value in data set [2] is “more helical 94-1”.

As for recombinant IgG1(kappa) 4E10 (antibody), the fold higher affinity than for the original peptide KGND in data set [3] was 1000 fold; in data set [4], 1000 fold; with peptide 94-1, …-NH2 [5], 1000 fold. The fold higher affinity than for peptide 33-1 was 17 fold in [6] and 17 fold in the data set with peptide 94-1, …-NH2 [7]. The fold higher affinity than for the synthetic peptide (KGND) in [8] is 4 fold.

As to “recombinant gp41 (residues 541-682 of HxB2; Viral Therapeutics, Inc.) (from UniProt P04578 541-682)”, the IC50 was found to be 0.25 mg/L in data set [9] and 0.01 µM in data set [10].

Turning to SLWNWFDITNWLWYIKKKK-NH2 [peptide …-NH2], the IC50 in data set [11] came to 0.01 µM.

In general, Kd refers to a measure of binding affinity in units of concentration. A low value points to tighter binding. In the data set with Fab 4E10 [12], NWFDITNWLWKKKK-NH2 [peptide 84-1, …-NH2] registered a Kd of 0.1 µM. Further, the half-inhibitory concentration (IC50) in data set [13] stood at 0.04 µM.

B1: peptide 33-1, NWFDITN-Aib-LWRR-NH2 (peptide)
peptide: NWFDITN[Aib]LWRR-NH2
modifications: N-terminus assumed
SMILES: CC[C@H](C)[C@H](NC(=O)[C@H](CC(=O)O)NC(=O)[C@H](Cc1ccccc1)NC(=O)[C@H](Cc1c[nH]c2ccccc12)NC(=O)[C@@H](N)CC(N)=O)C(=O)N[C@H](C(=O)N[C@@H](CC(N)=O)C(=O)NC(C)(C)C(=O)N[C@@H](CC(C)C)C(=O)N[C@@H](Cc1c[nH]c2ccccc12)C(=O)N[C@@H](CCCNC(=N)N)C(=O)N[C@@H](CCCNC(=N)N)C(N)=O)[C@@H](C)O
A word on the koff: it is the first-order rate constant of dissociation. A lower koff goes with slow dissociation. Usually kon stands for the rate constant with which the complex forms. Low values mean slower complex formation, high ones faster complex formation. For the molecule B1, the fold increase of binding affinity over its control peptide 44-1 in [14] was 3 fold. For the same molecule, in the data set with Fab 4E10 [15], the Kd is 0.302 µM, the off-rate constant (koff) came to 0.13 s⁻¹ and the on-rate (kon) turned out to be 431000 M⁻¹ s⁻¹. In [16], the half-inhibitory concentration (IC50) fell in the range of 0.1 to 0.4 µM.

For the molecule NWFDITNWLWYIKKKK-NH2 [peptide 94-1, …-NH2], the inhibition of 4E10 neutralization of replication competent HIV-1 SF162 and JR-CSF (TZM-bl cells, luciferase) in data set [17] turned out to be 30 µg/mL. Moreover, in data set [18], the fold improvement of IC50 compared to KGND was above 1000 fold and the fold improvement of IC50 over the starting peptide (84-1) was 4 fold. For the same molecule, the equilibrium dissociation constant (Kd) with Fab 4E10 [12] stood at 0.018 µM. In the data set with Fab 4E10 [15], this molecule displayed an equilibrium dissociation constant (Kd) of 0.02 µM, a koff of 0.0138 s⁻¹ and an on-rate (kon) of 691000 M⁻¹ s⁻¹. For the same molecule, the IC50 in data set [16] is 0.01 µM.
